Data on one molecule can be found in patent CN114605532A (BEIJING FIRST BIOCHEMICAL PHARMACEUTICAL LTD COMPANY, dated 2022).

This assay concerns the target 抗原(bs-0107P). Briefly: indirect ELISA, antigen bs-0107P coated at 2 μg/ml (0.2 μg/well), purified antibody in serial dilution, HRP goat anti-mouse IgG, OD450. For orientation: ELISA stands for enzyme-linked immunosorbent assay.

Sequence of 抗原(bs-0107P) (P05067 672-713): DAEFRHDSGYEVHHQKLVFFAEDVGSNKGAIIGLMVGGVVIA

B1: 抗β-淀粉样蛋白单克隆抗体7D10-1E6 (antibody, V domains shown)
VH: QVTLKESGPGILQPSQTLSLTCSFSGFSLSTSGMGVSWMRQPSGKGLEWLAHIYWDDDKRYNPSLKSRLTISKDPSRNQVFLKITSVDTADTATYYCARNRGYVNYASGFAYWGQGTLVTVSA
VL: DVLMTQTPLSLPVSLGDQASISCRSSQSIVHSNGNTYLEWYLQKPGQSPKLLIYKVSNRFSGVPDRFSGSGSGTDFILKINRVEAEDLGVYYCFQGSHVPLTFGAGTKLELK
For orientation: EC50 means the concentration at which the effect is half-maximal. A high value points to weaker potency. As for B1, the half-maximal effective concentration (EC50) is 0.0237 nM. In other words, the picomolar range.
